Test results: patent US20240116985A1 (published 2024)
Starred links: 1 amine or outer side, 2 acyl side, 3 side chain; linkers in the order of their positions; H or OH if unused. Positions of bridges follow the written chain, without caps; N, C: chain ends. Non-standard residues stand in square brackets, D forms with d. Primed or numbered codes have the meaning given here. PyrS2(3) = (S)-3-amino-1-((pent-4-en-1-yloxy)carbonyl)pyrrolidine-3-carboxylic acid, stapling residue, C=CCCCOC(=O)N1CC[C@@](N[*:1])(C(=O)[*:2])C1; PyrS2″ = (S)-3-amino-1-((pent-4-en-1-yloxy)carbonyl)pyrrolidine-3-carboxylic acid (stapling residue), C=CCCCOC(=O)N1CC[C@@](N[*:1])(C(=O)[*:2])C1; B5(24) = 2-amino-2-(pent-4-en-1-yl)hept-6-enoic acid, 2,2-bis(4-pentenyl)glycine (stitching residue), C=CCCCC(CCCC=C)(N[*:1])C(=O)[*:2]; B5(3) = 2,2-bis(4-pentenyl)glycine (stitching residue), C=CCCCC(CCCC=C)(N[*:1])C(=O)[*:2]; B5″ = 2,2-bis(4-pentenyl)glycine, stitching residue, C=CCCCC(CCCC=C)(N[*:1])C(=O)[*:2]; Asp(OMe) = [Me]AspE, Asp side-chain methyl ester, COC(=O)C[C@H](N[*:1])C(=O)[*:2]; Phe(3-CF3) = N[C@@H](Cc1cccc(C(F)(F)F)c1)C(=O)O; Phe(F5) = N[C@@H](Cc1c(F)c(F)c(F)c(F)c1F)C(=O)O; Phe(3-OMe) = COc1cccc(C[C@H](N)C(=O)O)c1; Phe(2-CN) = N#Cc1ccccc1C[C@H](N)C(=O)O; Phe(2-Cl) = N[C@@H](Cc1ccccc1Cl)C(=O)O; Bta = N[C@@H](Cc1csc2ccccc12)C(=O)O; Lys(iPr) = CC(C)NCCCC[C@H](N)C(=O)O; αAllylPro = C=CC[C@@]1(C(=O)O)CCCN1; tBuAla = CC(C)(C)C[C@H](N)C(=O)O; 3Thi = N[C@@H](Cc1ccsc1)C(=O)O; Cha = N[C@@H](CC1CCCCC1)C(=O)O; S8 = C=CCCCCCC[C@](C)(N)C(=O)O; R5 = C=CCCC[C@@](C)(N)C(=O)O; hSer = N[C@@H](CCO)C(=O)O

T1: B-cat-Halo (beta-catenin HaloTag construct expressed in HEK293 cells) (UniProt P35222 1-781)
T1 sequence (looked up): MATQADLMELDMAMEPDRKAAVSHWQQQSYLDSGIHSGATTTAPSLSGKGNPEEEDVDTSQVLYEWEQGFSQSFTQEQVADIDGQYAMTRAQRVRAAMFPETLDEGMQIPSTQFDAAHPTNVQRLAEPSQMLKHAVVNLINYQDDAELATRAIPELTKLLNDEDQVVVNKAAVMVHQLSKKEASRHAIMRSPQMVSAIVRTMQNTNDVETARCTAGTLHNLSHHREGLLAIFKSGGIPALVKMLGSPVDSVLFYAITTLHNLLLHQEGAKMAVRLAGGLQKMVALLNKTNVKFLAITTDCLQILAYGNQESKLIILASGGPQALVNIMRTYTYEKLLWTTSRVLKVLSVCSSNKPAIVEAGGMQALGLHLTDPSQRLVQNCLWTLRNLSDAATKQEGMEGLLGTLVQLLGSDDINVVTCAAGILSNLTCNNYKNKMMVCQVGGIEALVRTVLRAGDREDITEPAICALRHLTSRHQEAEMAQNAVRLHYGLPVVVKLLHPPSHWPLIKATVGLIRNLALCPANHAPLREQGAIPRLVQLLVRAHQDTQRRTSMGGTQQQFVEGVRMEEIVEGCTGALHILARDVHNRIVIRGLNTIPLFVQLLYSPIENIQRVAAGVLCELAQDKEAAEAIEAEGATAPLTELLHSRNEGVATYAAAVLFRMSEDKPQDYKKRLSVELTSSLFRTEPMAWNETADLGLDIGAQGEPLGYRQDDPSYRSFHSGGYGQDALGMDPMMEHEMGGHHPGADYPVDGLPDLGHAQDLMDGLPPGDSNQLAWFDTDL

T2: B-cat-Halo (beta-catenin HaloTag fusion expressed in HEK293 cells) (UniProt P35222 1-781, HaloTag NanoBRET 618 Ligand bound to the HaloTag)
T2 sequence (looked up): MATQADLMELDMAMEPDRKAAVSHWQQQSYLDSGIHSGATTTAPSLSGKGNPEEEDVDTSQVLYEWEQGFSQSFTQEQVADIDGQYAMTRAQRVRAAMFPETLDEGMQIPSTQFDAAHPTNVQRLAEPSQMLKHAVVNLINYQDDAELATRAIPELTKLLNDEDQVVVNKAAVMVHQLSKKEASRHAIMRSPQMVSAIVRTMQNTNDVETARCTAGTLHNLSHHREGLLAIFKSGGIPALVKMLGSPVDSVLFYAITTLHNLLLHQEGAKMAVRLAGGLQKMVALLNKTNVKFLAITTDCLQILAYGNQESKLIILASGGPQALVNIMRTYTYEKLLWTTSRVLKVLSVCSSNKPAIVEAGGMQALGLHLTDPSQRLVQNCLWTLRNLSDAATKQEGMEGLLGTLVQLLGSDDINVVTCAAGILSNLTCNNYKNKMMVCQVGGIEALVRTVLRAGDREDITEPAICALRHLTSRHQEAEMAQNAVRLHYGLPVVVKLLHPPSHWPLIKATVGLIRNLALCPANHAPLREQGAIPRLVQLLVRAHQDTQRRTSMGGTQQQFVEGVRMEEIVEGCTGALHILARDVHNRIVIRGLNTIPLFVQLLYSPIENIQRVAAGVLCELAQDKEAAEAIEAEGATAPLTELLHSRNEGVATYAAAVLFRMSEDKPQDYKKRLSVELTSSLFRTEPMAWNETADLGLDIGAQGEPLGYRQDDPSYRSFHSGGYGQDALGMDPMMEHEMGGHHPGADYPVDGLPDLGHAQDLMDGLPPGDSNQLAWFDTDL

T3: B-cat-Halo (UniProt P35222 1-781)
T3 sequence (looked up): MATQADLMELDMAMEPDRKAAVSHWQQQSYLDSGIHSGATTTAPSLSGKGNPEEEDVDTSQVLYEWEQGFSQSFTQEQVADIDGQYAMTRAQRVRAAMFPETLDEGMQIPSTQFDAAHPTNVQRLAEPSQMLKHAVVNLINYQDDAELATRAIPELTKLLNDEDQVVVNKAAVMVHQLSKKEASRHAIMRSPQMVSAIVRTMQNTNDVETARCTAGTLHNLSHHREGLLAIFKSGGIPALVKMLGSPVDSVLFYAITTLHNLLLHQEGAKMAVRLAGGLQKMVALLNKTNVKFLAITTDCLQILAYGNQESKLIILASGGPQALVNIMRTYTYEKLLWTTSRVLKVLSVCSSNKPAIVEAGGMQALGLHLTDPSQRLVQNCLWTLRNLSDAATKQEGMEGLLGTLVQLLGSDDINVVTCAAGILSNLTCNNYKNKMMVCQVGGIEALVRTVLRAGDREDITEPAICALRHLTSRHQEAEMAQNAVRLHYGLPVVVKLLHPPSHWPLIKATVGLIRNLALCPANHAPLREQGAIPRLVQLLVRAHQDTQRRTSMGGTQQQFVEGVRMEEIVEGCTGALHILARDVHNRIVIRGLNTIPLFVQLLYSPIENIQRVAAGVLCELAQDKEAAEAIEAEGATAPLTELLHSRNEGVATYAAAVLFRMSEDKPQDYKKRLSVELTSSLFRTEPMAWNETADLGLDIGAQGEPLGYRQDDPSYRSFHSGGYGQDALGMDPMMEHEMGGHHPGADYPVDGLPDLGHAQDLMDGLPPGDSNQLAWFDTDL


Molecular target: T1, B-cat-Halo (beta-catenin HaloTag …)
Test: cell-based or functional assay

NanoBRET Abs IC50 [µM]	Binder
28.6	Ac-[αAllylPro]D[Cha][B5″]DDAAFT[PyrS2(3)][Phe(F5)][Bta]S-NH2 (staple 1-4, 4-11) [I-1187]
7.2	Ac-[αAllylPro]D[tBuAla][B5″]DDAAFL[S8][3Thi][Bta]Q-NH2 (staple 1-4, 4-11) [I-1188]
23.6	Ac-[αAllylPro]D[tBuAla][B5″]DDAAFN[PyrS2(3)][Phe(F5)][Bta]Q-NH2 (staple 1-4, 4-11) [I-1186]
> 20	Ac-[αAllylPro]D[tBuAla][B5″]DDAA[Phe(2-CN)]L[PyrS2(3)][3Thi][Bta]Q-NH2 (staple 1-4, 4-11) [I-1200]
> 20	Ac-PD[tBuAla][R5]DDAAFL[PyrS2(3)][3Thi][Bta]Q-NH2 (staple 4-11) [I-1181]
16.2	Ac-[αAllylPro]D[tBuAla][B5″]DDAAFL[S8][3Thi][Bta]H-NH2 (staple 1-4, 4-11) [I-1195]
26.9	Ac-[αAllylPro]D[tBuAla][B5″]DDAAFL[PyrS2(3)][Phe(F5)][Bta]Q-NH2 (staple 1-4, 4-11) [I-1185]

Molecular target: T2, B-cat-Halo (beta-catenin HaloTag fusion …)
Test: cell-based or functional assay

NanoBRET Abs IC50 [µM]	Binder
> 20	Ac-[αAllylPro][Asp(OMe)][tBuAla][B5(3)]DDAAFL[PyrS2″][3Thi][Bta]Q-NH2 (staple 1-4, 4-11) [I-2359]

Molecular target: T3, B-cat-Halo
Test: cell-based or functional assay

NanoBRET Abs IC50 [µM]	Binder
14.9	Ac-[αAllylPro]D[Cha][B5(24)]DDAAFS[PyrS2″][Phe(2-Cl)][Bta][dT]-NH2 (staple 1-4, 4-11) [I-1136]
19.8	Ac-[αAllylPro]D[Cha][B5(24)]DDAAFS[PyrS2″][Phe(2-Cl)][Bta]L-NH2 (staple 1-4, 4-11) [I-1138]
> 20	Ac-[αAllylPro]D[tBuAla][B5(24)]DDA[Lys(iPr)]FN[PyrS2″][Phe(2-Cl)][Bta]Q-NH2 (staple 1-4, 4-11) [I-1132]
18.8	Ac-[αAllylPro]D[tBuAla][B5(24)]DD[Lys(iPr)]AFN[PyrS2″][Phe(2-Cl)][Bta]Q-NH2 (staple 1-4, 4-11) [I-1131]

The next lines start with the binder.

Binder	NanoBRET Abs IC50 [µM]
Ac-[αAllylPro]D[Cha][B5(3)]DDAA[Phe(3-CF3)]S[PyrS2″]F[Bta]Q-NH2 (staple 1-4, 4-11) [I-1125]	> 20
Ac-[αAllylPro]D[Cha][B5(24)]DDAAFL[PyrS2″][Phe(2-Cl)][Bta]T-NH2 (staple 1-4, 4-11) [I-1139]	18
Ac-[αAllylPro]D[Cha][B5(24)]DDAAFS[PyrS2″][Phe(2-Cl)][Bta][hSer]-NH2 (staple 1-4, 4-11) [I-1137]	12
Ac-[αAllylPro]D[Cha][B5(3)]DDAA[Phe(3-OMe)]S[PyrS2″]F[Bta]Q-NH2 (staple 1-4, 4-11) [I-1124]	> 20
Ac-[αAllylPro]D[tBuAla][B5(24)]DDAAFN[PyrS2″][Phe(2-Cl)][Bta][Lys(iPr)]-NH2 (staple 1-4, 4-11) [I-1130]	7.6
